According to IntAct's records for PubMed 19407142:

B1: Abscisic acid receptor PYR1 (Arabidopsis thaliana (Mouse-ear cress)), O49686 (parent)
chain: MPSELTPEERSELKNSIAEFHTYQLDPGSCSSLHAQRIHAPPELVWSIVRRFDKPQTYKHFIKSCSVEQNFEMRVGCTRDVIVISGLPANTSTERLDILDDERRVTGFSIIGGEHRLTNYKSVTTVHRFEKENRIWTVVLESYVVDMPEGNSEDDTRMFADTVVKLNLQKLATVAEAMARNSGDGSGSQVT
B2: Protein phosphatase 2C 56 (Arabidopsis thaliana (Mouse-ear cress)), P49597 (parent)
chain: MEEVSPAIAGPFRPFSETQMDFTGIRLGKGYCNNQYSNQDSENGDLMVSLPETSSCSVSGSHGSESRKVLISRINSPNLNMKESAAADIVVVDISAGDEINGSDITSEKKMISRTESRSLFEFKSVPLYGFTSICGRRPEMEDAVSTIPRFLQSSSGSMLDGRFDPQSAAHFFGVYDGHGGSQVANYCRERMHLALAEEIAKEKPMLCDGDTWLEKWKKALFNSFLRVDSEIESVAPETVGSTSVVAVVFPSHIFVANCGDSRAVLCRGKTALPLSVDHKPDREDEAARIEAAGGKVIQWNGARVFGVLAMSRSIGDRYLKPSIIPDPEVTAVKRVKEDDCLILASDGVWDVMTDEEACEMARKRILLWHKKNAVAGDASLLADERRKEGKDPAAMSAAEYLSKLAIQRGSKDNISVVVVDLKPRRKLKSKPLN
B3: Protein phosphatase 2C 77 (Arabidopsis thaliana (Mouse-ear cress)), O04719 (parent)
chain: MDEVSPAVAVPFRPFTDPHAGLRGYCNGESRVTLPESSCSGDGAMKDSSFEINTRQDSLTSSSSAMAGVDISAGDEINGSDEFDPRSMNQSEKKVLSRTESRSLFEFKCVPLYGVTSICGRRPEMEDSVSTIPRFLQVSSSSLLDGRVTNGFNPHLSAHFFGVYDGHGGSQVANYCRERMHLALTEEIVKEKPEFCDGDTWQEKWKKALFNSFMRVDSEIETVAHAPETVGSTSVVAVVFPTHIFVANCGDSRAVLCRGKTPLALSVDHKPDRDDEAARIEAAGGKVIRWNGARVFGVLAMSRSIGDRYLKPSVIPDPEVTSVRRVKEDDCLILASDGLWDVMTNEEVCDLARKRILLWHKKNAMAGEALLPAEKRGEGKDPAAMSAAEYLSKMALQKGSKDNISVVVVDLKGIRKFKSKSLN

Variants of: B1
Settings: with HAB1, Q9CAJ0
Sequence of HAB1, Q9CAJ0 (Q9CAJ0 whole entry): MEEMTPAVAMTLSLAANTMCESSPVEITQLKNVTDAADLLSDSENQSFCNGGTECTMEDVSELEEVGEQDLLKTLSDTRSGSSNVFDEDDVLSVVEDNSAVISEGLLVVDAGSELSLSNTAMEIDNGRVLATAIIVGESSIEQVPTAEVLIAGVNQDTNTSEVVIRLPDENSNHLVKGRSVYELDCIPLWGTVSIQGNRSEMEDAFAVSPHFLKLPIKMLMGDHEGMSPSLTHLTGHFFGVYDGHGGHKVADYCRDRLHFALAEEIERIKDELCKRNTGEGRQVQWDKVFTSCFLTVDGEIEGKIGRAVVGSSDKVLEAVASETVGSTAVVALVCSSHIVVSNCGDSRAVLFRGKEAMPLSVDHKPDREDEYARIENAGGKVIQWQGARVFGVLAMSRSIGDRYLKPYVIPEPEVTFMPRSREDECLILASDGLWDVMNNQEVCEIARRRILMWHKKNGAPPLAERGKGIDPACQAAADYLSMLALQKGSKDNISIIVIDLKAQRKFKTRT

Variant	effect of a mutation on the interaction
MPSELTPEERSELKNSIAEFHTYQLDPGSCSSLHAQRIHAPPELVWSIVRRFDKPQTYKHFIKSCSVEQNFEMRVGCTRDVIVISGLSANTSTERLDILDDERRVTGFSIIGGEHRLTNYKSVTTVHRFEKENRIWTVVLESYVVDMPEGNSEDDTRMFADTVVKLNLQKLATVAEAMARNSGDGSGSQVT [P88S]	disrupting interaction
MPSELTPEERSELKNSIAEFHTYQLDPGSCSSLHAQRIHAPPELVWSIVRRFDKPQTYKHFIKSCSVEQNFEMRVGCTRDVIVISGLPANTSTERLDILDDERRVTGFSIIGGEHRLTNYKSVTTVHRFEKENRIWTVVLESYVVDMPEGNLEDDTRMFADTVVKLNLQKLATVAEAMARNSGDGSGSQVT [S152L]	disrupting interaction

Variants of: B2
Settings: with pyr1_arath PYR1, O49686

Variant	effect of a mutation on the interaction
MEEVSPAIAGPFRPFSETQMDFTGIRLGKGYCNNQYSNQDSENGDLMVSLPETSSCSVSGSHGSESRKVLISRINSPNLNMKESAAADIVVVDISAGDEINGSDITSEKKMISRTESRSLFEFKSVPLYGFTSICGRRPEMEDAVSTIPRFLQSSSGSMLDGRFDPQSAAHFFGVYDGHDGSQVANYCRERMHLALAEEIAKEKPMLCDGDTWLEKWKKALFNSFLRVDSEIESVAPETVGSTSVVAVVFPSHIFVANCGDSRAVLCRGKTALPLSVDHKPDREDEAARIEAAGGKVIQWNGARVFGVLAMSRSIGDRYLKPSIIPDPEVTAVKRVKEDDCLILASDGVWDVMTDEEACEMARKRILLWHKKNAVAGDASLLADERRKEGKDPAAMSAAEYLSKLAIQRGSKDNISVVVVDLKPRRKLKSKPLN [G180D]	decreasing interaction

Variants of: B3
Settings: with pyr1_arath PYR1, O49686

Variant	effect of a mutation on the interaction
MDEVSPAVAVPFRPFTDPHAGLRGYCNGESRVTLPESSCSGDGAMKDSSFEINTRQDSLTSSSSAMAGVDISAGDEINGSDEFDPRSMNQSEKKVLSRTESRSLFEFKCVPLYGVTSICGRRPEMEDSVSTIPRFLQVSSSSLLDGRVTNGFNPHLSAHFFGVYDGHDGSQVANYCRERMHLALTEEIVKEKPEFCDGDTWQEKWKKALFNSFMRVDSEIETVAHAPETVGSTSVVAVVFPTHIFVANCGDSRAVLCRGKTPLALSVDHKPDRDDEAARIEAAGGKVIRWNGARVFGVLAMSRSIGDRYLKPSVIPDPEVTSVRRVKEDDCLILASDGLWDVMTNEEVCDLARKRILLWHKKNAMAGEALLPAEKRGEGKDPAAMSAAEYLSKMALQKGSKDNISVVVVDLKGIRKFKSKSLN [G168D]	disrupting interaction
